Consider 3 molecules from patent publication WO2009030872A1 (dated 2009).

Test [1] addresses E1E2 of HCV genotype 2a isolate JFH-1 (hepatitis C virus genotype 2a, isolate …). Kind of test: cell-based or functional assay.
The target of test [2] is E1E2 of HCV isolate H77c with E2 substitution W529A (hepatitis C virus genotype 1a, isolate …, UniProt P27958 386-729; P27958 193-382). The test is described as follows: GNA capture ELISA on alanine-substituted H77c E1E2. For orientation: ELISA stands for enzyme-linked immunosorbent assay.
Test [3] has as its target E1E2 of HCV isolate H77c with E2 substitution G523A (hepatitis C virus genotype 1a, isolate …, UniProt P27958 386-729; P27958 193-382). The test is described as follows: GNA capture ELISA on alanine-substituted H77c E1E2.
Test [4] concerns the target E1E2 of HCV isolate H77c with E2 substitution D535A (hepatitis C virus genotype 1a, isolate …, UniProt P27958 386-729; P27958 193-382). The test is described as follows: GNA capture ELISA on alanine-substituted H77c E1E2.
The target in test [5] is E1E2 of HCV isolate H77c with E2 substitution G530A (hepatitis C virus genotype 1a, isolate …, UniProt P27958 386-729; P27958 193-382). The test is described as follows: GNA capture ELISA on alanine-substituted H77c E1E2.
The target in test [6] is T1, E1E2 of HCV genotype 1a isolate H77c (hepatitis C virus genotype 1a, strain …, UniProt P27958 386-729; P27958 193-382). The test is described as follows: GNA capture ELISA on E1E2 of H77c.
Test [7] addresses T1, E1E2 of HCV genotype 1a isolate H77c. Kind of test: inferred from GNA capture ELISA binding curve by non-linear regression.

B1: human monoclonal antibody clone 1:7 (antibody, V domains shown)
VH: VQLLEQSGAEVKKPGSSVKVSCQVFGDTFSRYTIQWLRQAPGQGPEWMGNIIPVYNTPNYAQKFQGRLSITADDSTSTAYMELSSLRSEDTAVYFCARVVIPNAIRHTMGYYFDYWGQGTLVTVSS
VL: AELTQSPATLSLSPGERATLSCRASQSVNKYLAWYQQKPGQAPRLLIYDASNRATGIPARFSGSGSGTDFTLTISNLEPEDFAVYYCQQRSDWVTFGGGTKVEIK
notes: also called mAb 1:7
In general, EC50 refers to the concentration needed to bring the measured effect to its halfway point. Broadly, the Kd is the concentration at which binding is half-saturated. Read a high Kd as lower affinity. On to B1, for which the “IC50 of neutralization of HCVcc JFH-1 (density of E2 after western blotting)” value in test [1] was around 60 ng/mL. Also, the binding result in test [2], in test [3], in test [4] and in test [5] was “no binding” throughout. This molecule had an EC50 in test [6] of 0.67 µg/mL. In test [7], this molecule came in with a Kd of around 4.1 nM.

B2: human monoclonal antibody clone A8 (antibody, V domains shown)
VH: EVQLLESGPGLVKPSGTLSLTCTVSGGSIRSSHWWSWVRQPPGKGLEWIGEVFFSGSTIYNPSLNDRVFMSVDKSKDQVSLRLSSVTAADTAVYYCARSPIKMNQGRMMLDAFDIWGQGTLVIVSS
VL: AELTQSPSSLSAFVGDRVTITCRASQSISRNLNWYQQKPGTAPKVLIYAASSLQSGVPSRFSGSGSGTDFTLTITSLQPEDFATYYCQQSYTTPRTFGQGTKVEVK
notes: also called mAb A8
In the case of B2, in test [1], the “IC50 of neutralization of HCVcc JFH-1 (density of E2 after western blotting)” value is around 560 ng/mL. Moreover, the binding result in test [2], in test [3], in test [4] and in test [5] was “no binding” throughout. The molecule further displayed an EC50 in test [6] of 0.44 µg/mL. This molecule showed a Kd in test [7] of around 2.7 nM.

B3: human monoclonal antibody clone L1 (antibody, V domains shown)
VH: EVQLLESGGGVVQPGRSLRLSCAASGFTFSAYGMHWVRQAPGKGLEWVAGIWFDGSNQYYSDSVKGRFTVSRDNSRNTLFLQMNSLRPEDTAVYYCATEVLFGSIKGRYYLENWGQGTLVTVSS
VL: AELTQSPGTLSLSVGERATLSCRASQNIYSGYLGWYQQKPGQPPRLLIYGASNRATGIPDRFSGSGSGTDFTLTISRLESEDFAVYYCQQYGSPPYTFGQGTKVEIK
notes: also called mAb L1; Ll
In test [6], B3 displayed an EC50 of 2.31 µg/mL. The Kd in test [7] is around 15 nM.
